In patent US20110009597A1, “RECOMBINANT GANODERMA LUCIDIUM IMMUNOMODULATORY PROTEIN (rLZ-8) AND USES THEREOF” (priority 2008, published 2011):

Key:
HL-60 = assay: Annexin V-FITC flow cytometry, apoptosis of HL-60; format: cell-based; conditions: Annexin V/PI
Method: FACS Calibur flow cytometry, U.S. Becton-Dickinson.Coompany. NB4, HL-60. rLZ-8 is prepared with IMDM culture medium containing 2% FCS into the preparation of 0.1 μg·ml^−1, 0.5 μg·ml^−1, 2.5 μg·ml^−1, arsenic trioxide (As2O3) 0.5 μg·ml^−1 AnnexinV-FITC kit: combining buffer solution 4×; Propidium iodide solution (PI), 20 μg·ml−1, 0.2 ml; recombinant human Annexin V/FITC, 0.1 ml.
Establish NB4 normal control group, positive drug group (As2O3 0.5 μg·ml^−1), protein low-dose group (0.1 μg·ml^−1), medium-dose group (0.5 μg·ml^−1), high-dose group, (2.5 μg·ml^−1); establish HL-60 normal control group, protein low-dose group (0.1 μg·ml^−1), medium-dose group (0.5 μg·ml^−1), high-dose group, (2.5 μg·ml^−1).
Mix NB4 and HL-60 cell into 24-orifice plate respectively, 1 ml/hole supply rLZ-8 in different concentrates, set 3-orifice multipunches for each group. Put them in 37° C., 5% CO2 incubator for 24 h, collect the cells of each concentrate, washes the cells twice with pre-cooled PBS 4° C., with 250 μl binding buffer solution re-suspending cells and regulates the cell density to 1×10^6/ml, taking out 100 μl to 5 ml streaming tube, and add 5 μl Annexin V/FITC and 10 μl 20 μg·ml^−1 PI solution, after mixing put it in room temperature and lucifuged hatching 15 min, add 400 μl PBS by flow cytometry analysis.

WBC = assay: Prevention of radiation leucopenia model of mice, WBC; format: in vivo; set-up: unit not given here; conditions: for WBC, 5th day (rLZ-8): 5th day of administration before radiation; for WBC, 5th day / WBC, 7th day: after 7.5 Gy γ-ray
Method: rLZ-8 preparation of sterile saline. Divide them into 5 μg·kg^−1, 2.5 μg·kg^−1, 1.25 μg·kg^−1, 0.62 μg·kg^−1 dose groups. 0.2 ml/vial.
Genlei™ Scimax™ [Recombinant human granulocyte colony-stimulating factor injection (rhG-CSF)], production lot: 20060403; 150 μg/vial is prepared with sterile normal saline into the preparation of 3.2 μg·kg^−1, 0.2 ml/vial.
The mice were irradiated by 7.5 Gy γ-ray (180 mV, 15 mA) and then divided into seven groups (n=10): (A) negative control; (B) 5 μg·kg−1 dose; (C) 2.5 μg·kg−1 dose; (D) 1.25 μg·kg−1 dose; (E) 0.62 μg·kg−1 dose; (F) positive control (Genlei™ Scimax™); (G) model group. Before modeling 5 days, mice in each group were administered with Genlei™ Scimax™ and rLZ-8 for 5 days, on the 5th day, mice were radiated, for 5 days, and on the 7th day, drew blood from tail, tested the number of WBC, weight spleen, calculated index of spleen.

spleen = assay: Colony forming unit-spleen and spleen index in radiation model of mice; format: in vivo
Method: rLZ-8 preparation of sterile saline. Divide them into 5 ∞g·kg^−1, 2.5 μg·kg^−1, 1.25 μg·kg^−1, 0.62 μg·kg^−1 dose groups. 0.2 ml/vial.
Genlei™ Scimax™ [Recombinant human granulocyte colony-stimulating factor injection (rhG-CSF)], production lot: 20060403; 150m/vial is prepared with sterile normal saline into the preparation of 3.2 μg·kg^−1, 0.2 ml/vial.
The mice were irradiated by 7.5 Gy γ-ray (180 mV, 15 mA) and then divided into seven groups (n=10): (A) negative control; (B) 5 μg·kg−1 dose; (C) 2.5 μg·kg−1 dose; (D) 1.25 μg·kg−1 dose; (E) 0.62 μg·kg−1 dose; (F) positive control (Genlei™ Scimax™); (G) model group. Together with modeling, mice in each group were administered with Genlei™ Scimax™ and rLZ-8 for 9 days, drew blood from tail, tested the number of WBC, weight spleen, calculated index of spleen.

[1] = tested on: Human Chronic Myelogenous Leukemia K562 Cells; assay: Lethal effect of rLZ-8 on K562 cells (MTT, OD570nm); format: cell-based
Method: After sterilization of rLZ-8, we prepared 6 concentrations using IMDM culture medium, which are respectively 3.125 μg·ml^−1, 6.25 μb·ml^−1, 12.5 μg·ml^−, 25 μg·ml^−1, 50 μg·ml^−1, 100 μg·ml^−1.
On 96-orifice culture plate, the pilot aperture plus K562 tumor cells 0.1 ml and rLZ-8 0.1 ml, rLZ-8 concentrations from low to high; negative control group plus K562 tumor cells and culture medium of the 0.1 ml respectively; positive drug control group arsenic trioxide As2O3; make six-aperture multipunches for each group. Placing in 37° C., 5% CO2 incubator 48 h, adding MTT15 μl (5 mg ml^−1) prior to the termination of 4 h, after the termination of cell culture by adding 100 μl 0.1 mol L^−1 hydrochloric acid isopropyl alcohol, testing OD values570nm on the enzyme immunosorbent detector.

B1: rLZ-8: Recombinant Ganoderma Lucidum Immune Regulatory Protein expressed in Pichia pastoris (protein, UniProt P14945 2-111, looked up)
Immunomodulatory protein Ling …: SDTALIFRLAWDVKKLSFDYTPNWGRGNPNNFIDTVTFPKVLTDKAYTYRVAVSGRNLGVKPSYAVESDGSQKVNFLEYNSGYGIADTNTIQVFVVDPDTNNDFIIAQWN
B1 showed an Apoptosis rate (HL-60; HL-60, rLZ-8 0.1 μg·ml−1, 24 h) of 30.5%, an Apoptosis rate (HL-60; HL-60, rLZ-8 0.5 μg·ml−1, 24 h) of 40.7% and an Apoptosis rate (HL-60; HL-60, rLZ-8 2.5 μg·ml−1, 24 h) of 47.7%. For the same molecule, the “WBC, 5th day (rLZ-8)” value (WBC; rLZ-8 0.62 μg·kg^−1) was 10.7 ± 0.45, the “WBC, 5th day” value (WBC; rLZ-8 0.62 μg·kg^−1) was 0.16 ± 0.31 and the “WBC, 7th day” value (WBC; rLZ-8 0.62 μg·kg^−1) was 0.40 ± 0.12. For the same molecule, the “WBC, 5th day (rLZ-8)” value (WBC; rLZ-8 1.25 μg·kg^−1) was 12.5 ± 0.45, the “WBC, 5th day” value (WBC; rLZ-8 1.25 μg·kg^−1) was 0.25 ± 0.11 and the “WBC, 7th day” value (WBC; rLZ-8 1.25 μg·kg^−1) was 0.46 ± 0.11. The “WBC, 5th day (rLZ-8)” value (WBC; rLZ-8 2.5 μg·kg^−1) was 12.8 ± 0.54, the “WBC, 5th day” value (WBC; rLZ-8 2.5 μg·kg^−1) was 0.32 ± 0.15 and the “WBC, 7th day” value (WBC; rLZ-8 2.5 μg·kg^−1) was 0.45 ± 0.20. For the same molecule, the “WBC, 5th day (rLZ-8)” value (WBC; rLZ-8 5 μg·kg^−1) was 19.5 ± 0.32, the “WBC, 5th day” value (WBC; rLZ-8 5 μg·kg^−1) was 0.32 ± 0.18 and the “WBC, 7th day” value (WBC; rLZ-8 5 μg·kg^−1) was 0.53 ± 0.35. The “colony forming unit-spleen number” value (spleen; rLZ-8 0.62 μg·kg^−1) was 8.9 ± 0.41, the growth rate (spleen; rLZ-8 0.62 μg·kg^−1) was 50% and the “index (spleen)” value (spleen; rLZ-8 0.62 μg·kg^−1) was 0.50 ± 0.10. For the same molecule, the “colony forming unit-spleen number” value (spleen; rLZ-8 1.25 μg·kg^−1) was 6.3 ± 0.21, the growth rate (spleen; rLZ-8 1.25 μg·kg^−1) was 30% and the “index (spleen)” value (spleen; rLZ-8 1.25 μg·kg^−1) was 0.24 ± 0.13. The “colony forming unit-spleen number” value (spleen; rLZ-8 2.50 μg·kg^−1) was 14.3 ± 0.03, the growth rate (spleen; rLZ-8 2.50 μg·kg^−1) was 69% and the “index (spleen)” value (spleen; rLZ-8 2.50 μg·kg^−1) was 0.52 ± 0.12. The “colony forming unit-spleen number” value (spleen; rLZ-8 5 μg·kg^−1) was 9.7 ± 0.16, the growth rate (spleen; rLZ-8 5 μg·kg^−1) was 54% and the “index (spleen)” value (spleen; rLZ-8 5 μg·kg^−1) was 0.22 ± 0.09. For the same molecule, the “lethal effect in vitro on K562 tumor cells (in words)” value ([1]; 3.125-100 μg·ml^−1) was “strong lethal effect”, the “Growth inhibition rate (%)” value ([1]; rLZ-8 3.125 μg ml^−1, 48 h) was 34.7% and the OD570 nm ([1]; rLZ-8 3.125 μg ml^−1, 48 h) was 0.66 ± 0.03. For the same molecule, the “Growth inhibition rate (%)” value ([1]; rLZ-8 6.25 μg ml^−1, 48 h) was 42.6%, the OD570 nm ([1]; rLZ-8 6.25 μg ml^−1, 48 h) was 0.58 ± 0.03 and the “Growth inhibition rate (%)” value ([1]; rLZ-8 12.5 μg ml^−1, 48 h) was 48.5%. The OD570 nm ([1]; rLZ-8 12.5 μg ml^−1, 48 h) was 0.52 ± 0.05, the “Growth inhibition rate (%)” value ([1]; rLZ-8 25 μg ml^−1, 48 h) was 69.3% and the OD570 nm ([1]; rLZ-8 25 μg ml^−1, 48 h) was 0.31 ± 0.02. For the same molecule, the “Growth inhibition rate (%)” value ([1]; rLZ-8 50 μg ml^−1, 48 h) was 75.2%, the OD570 nm ([1]; rLZ-8 50 μg ml^−1, 48 h) was 0.25 ± 0.04 and the “Growth inhibition rate (%)” value ([1]; rLZ-8 100 μg ml^−1, 48 h) was 81.2%. The OD570 nm ([1]; rLZ-8 100 μg ml^−1, 48 h) was 0.19 ± 0.03.
